Results reported in paper PMC3408443.

Molecular target: MHC II molecules of Flt3L-mobilized splenic CD11c+ DCs from Balb/c×C57Bl/6 (I-A^b,d/E^d) F1 mice (mouse (endogenous in splenic DCs))
Assay: affinity purification with mass spectrometry

amount of peptide eluted from MHC II: 15 fmol/µL
copies per cell presented on MHC II: 180 copies/cell
Binder: KELEEQLGPVAEETR [… MHC II peptide derived from endogenous apolipoprotein E]
